This note sets out measurements from the nanobody polyreactivity screen of Harvey et al. (2022).

This series is described as follows: yeast display, Sf9 membrane polyspecificity reagent, FACS + sequencing; frameworks hold sequencing errors. In outline: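 Genes from sorted yeast were amplified by colony PCR, read by MiSeq 2 × 250 sequencing and filtered on CDR length. These cells carried a synthetic nanobody library in Saccharomyces cerevisiae BJ5465 and were sorted by FACS into low and high (top ~1%) gates on anti-HA and streptavidin fluorescence. Polyreactivity is labelled according to the gate of origin.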
As to “QVQLVESWGGLVQAGGSLRLSCAASGSTFAGYAMGWYRQAPGKERELVAAIDWGGDSTYYADSVKGRFTISRDNAKNTVYLQMNSLKPEDTAVYYCAAYWYSRYDYDYWGQGTQVTVSS”, the “polyreactivity (PSR sort gate)” value is given as “low polyreactivity”.
The same measure for “QVQLLDSGGGLVQAGGSLRLSCAASGSTISRNAMGWYRQAPGKERELVAAITSKGDSSYYADSVKGRFTISRDNAKNTVYLQMNSLKPEDTAVYYCAKDGVPAQDIGMDYWGQGTQVTVSS”: “low polyreactivity”; for “QVQLVESGGGLVQAGGSLRLSCAASGRTFFGYAMGWYRQAPGKERELVAAISSRGDSTYYADSVKGRFTISRDNAKNTVYLQMNSLKPEDTAVYYCNTYSTVYSYDYDYWGQGTQVTVSS”: “low polyreactivity”.
Regarding “QVQLVESGGGLVQAGGSLRLSCAASGSIFTWYAMGWYRQAPGTERELVAAITRGGSTYADSVKGRFTISRDNAKNTVYLQMNSLKPEDTAVYYCNAVYGVYDFNYWGQGTQVTVSS”, the “polyreactivity (PSR sort gate)” value is listed as “low polyreactivity”.
The entry for “QVQLVESGGGLVQAGGSLRLSCAASGRTFGKYAMGWYRQAPGKERELVATISRSGGSTYYADSVKGRFTISRDNAKNTVYLQMNSLKPEDTAVYYCNAVTSRYIWPPVLDRYHYWGQGTQVTVSS” is “high polyreactivity”; for “QVQLVESGGGLVQAGGSLRLSCAASGTFYRNAMGWYRQAPGKERELVAAISSGSNTDYADSVKGRFTISRDNAKNTVYLQMNSLKPEDTAVYYCNADRGDLYELRGSGYLDGYWGQGTQVTVSS” it is “low polyreactivity”; for “QVQLVESGGGLVQAGGSLRLSCAASGSMFYYYAMGWYRQPPGKERELVAAISSGGVGSTTYADSVKGRFTISRDNAKNTVYLQMNSLKPEDTAVYYCNADRPGYFYFYFNYWGQGTQVTVSS” it is “high polyreactivity”.
The entry for “QVQLVESGGGLVQAGGSLRLSCAASGSTFYRYAMGWYRPAPGKERELVAAITSAGSTNYADSVKGRFTISRDNAKNTVYLQMNSLKPEDTAVYYCAKDLTRWGYNEYDYWGQGSQVTVSS” is “low polyreactivity”; for “QVQLVESGGGLVQAGGSLRLSCAASGRTCWDYAMGWYRPAPGKERELVAAITWGGGSTYYADSVKGRFTISRDNAKNTVYLQMNSLKPEDTAVYYCAADTKGWGQGTQVTVSS” it is “low polyreactivity”; for “QVQLVESGGGLVQAGGSLRLSCAASGSTLVLNAMGWYRQAPGKERELVAAITISGDTTYYADSVKGRFTISRDNAKNTVYLQMNSLKPEDTAVYYCAVDSFLVYSAVRPYDYWGQGTQVTVSS” it is “low polyreactivity”.
The same measure for “QVQLVESGGGLVQAGGSLRLTCAASGSIFGYAMGWSRQAPGKERELVAALSFSGVSTYYAYSVKGRFTISRDNAKNTVYLQMNSLKPEDTAVYYCNAYSDGDEDYWGQGTQVTVSS”: “low polyreactivity”; for “QVQLVESGGGLVQAGGSLRLSCAASGSIFRLYGMGWYRQAPGKERELVASITYRGGNTYYADSVKGRFTISRDNAKNTVYLQMNSLKPEDTAVYYCARSGYQKVGGFRYDYWGQGTQVTVSS”: “low polyreactivity”; for “QVQHVESGGGLVQAGGSLRLSCAASGRTFYSYAMGWYRQAPGKERELVAAINSGGTTYYADSVKGRFTISRDNAKNTVYLEINSLKPEDTAVYYCAAVSYLFLYQGYPIAYPMYYWGQGTQVTVSS”: “low polyreactivity”.
On to “QVQLVDSGGGLVQAGGRLRLSCAASGSTFGWYGMGWYIQAPGKERELVASINWRGSSTYYADSVKGRFTMSRDNAKNTVYLQMNSLKPEDTAVYYCATTRDWAYNYWGQGTQVTVSS”, for which the “polyreactivity (PSR sort gate)” value is on record as “low polyreactivity”.
As for “QVQLVESGGGLVQAGGSLRLICAASGGIIYWNAMGWYRQAPGKERELVATITRSGGSTYYADSVKGRFTISRDNAKNTVYLQMNSLKPEDTAVYYCAARSYYRFDYWGQGTQVTVSS”, the “polyreactivity (PSR sort gate)” value is on record as “high polyreactivity”.
As to “QVQLVESGGGLVQAGGSLRLSCAASGRIFYFYAMGWYRQAPGKERELVAAINIGGSTNYADSVKGRFTISRDNAKNTVYLQMNSLKPEDTAVYYCNAEAYSRSDYYRYDYWGQGTQVTVSS”, the “polyreactivity (PSR sort gate)” value was “low polyreactivity”.
As for “QVQLVESGGGLVQAGGSLRLSCAASGSIFVGYAMGWYRQAPGKERELVAAISSNGGSTYYADSVKGRFTISRDNAKNTVYLQMNSLKPEDTAVYYCAAGVRRVYASGHGAYGYWGQGTQVTVSS”, the “polyreactivity (PSR sort gate)” value is recorded as “low polyreactivity”.
Take “QVQLVESGGGLVQAGGSLRLICAASGLIFVRNVMGWYRQAPGKERELVAAINLSTGSTYYADSVKGRFTISRDNAKNTVYLQMNCLKPEDTAVYYCAAEYLYWDDLQDYEYWGQGTQVTVSS”: the “polyreactivity (PSR sort gate)” value is on record as “low polyreactivity”.
The same measure for “QVQLVESGGGLVQAGGSLRLSCAASGRTFLSNAMGWYRQAPGKERELVADITFRGGNTYYADSVKGRFTISRGNAKNTVYLQMNSLKPEDTAVYYCAVLGYGRLSRVRYGYWGQGTQVTVSS”: “high polyreactivity”; for “QVQRVESGGGLVQAGGSLRLSCAASGLTFVYYAMGWYRQAPGKERELVAAISESGTSTYYADSVKGRFTISRDNAKNTVYLQMNSLKPEDTAVYYCAAKDSYYEMDYWGQGTQVTVSS”: “high polyreactivity”; for “QVQLVESGGGLVQAGGSLRLSCAASGFIFHRYAMGWYRQAPGKERELVAAISRRGGSTYYADSVKGRFTISRDNAKNTVYLQMNSLKPEDTAVYYCARTVGDRTLLESDSWGQGTQVTVSS”: “high polyreactivity”.
The entry for “QVQLVESGGGLVQAGGSLRLSCAASGLTFKVYDMGWYRQAPGKERELVAAISWSGGSTYYADSVKGRFTISRDNAKNTVYLQMNSLKPEDTAVYFCAVEPSYYVVFFPYEYWGQGTQVTVSS” is “low polyreactivity”; for “QVHLVESAGGLVQAGGSLRLSSDSSGLIFYRYAMGWYRQAPGKERELVAAITSRSGRTYYADSVKGRFTFSRDNAKNTVYLQMNSLKPEDTAVYYCNAEWRSRYDYWGQGNQVTVSS” it is “high polyreactivity”.
For the sequence “QVQLLESGGGLVQPGGSLRLSCAASGRIFRHSAMGWYRQAPGKERELVAAISGGGGRTYYADSVKGRFTISRDNAKLSVDLQMNSLKPEDTAVYYCAAYRSRHYYYWGHGTQVTVSS”, the “polyreactivity (PSR sort gate)” value is on record as “high polyreactivity”.
The same measure for “QFQLVESGGGLVQAGGSLRLSCAASGSTFDTYAMGWYRQAPGKERDLFAAISGSGVRTYYADSVKGRFTISRDNAKNTVYLQMNSLKPEDTAVYYSAAAGSGYGGKQFDHGFNYWGQGTQVTVSS”: “high polyreactivity”; for “QVQLVESGGGLVQAGGSLRLICAASGSIFRLYAMGWYRQAPGKERELVAAIRWSGGRTYYADSVKGRFTISRDNAKNTVYLQMNSLKPEDTAVYYCAADYYLPAYPPQTFGYWGQGTQVTVSS”: “high polyreactivity”; for “QVQLVESGGGLVQAGGSLRISCAASGRIFSYNAMGWYRQAPGKERELVASISRGGSTYADSVKGRFTISRDNAKNTVYLQMNRLQPADTAVYYCNAVHFSYEYDYWGQGTQVTVSS”: “high polyreactivity”.
With “QVQLVESGGGLVQAGGSLRLSCAASGSTFYPYTMGWYRQAPGKERELVASISTTGGSTNYADSVKGRFTISRDNAKNTVYLQMNSLKPEDTAVYYCAARSNYTRRLYYYYWGLGTQVTVSS”, the “polyreactivity (PSR sort gate)” value is “high polyreactivity”.
The same measure for “QVQLVESGGGLVQAGGSLRLSCAASGSIFPHYAMGWYRQAPGKEREFVATISGSTGRTYYADSVKGRFTISRDNAKNTVYLQMNSLKPEDTAVYYCATSVGYYLPPIKYDYWGQGTQVTVSS”: “low polyreactivity”; for “QVQLVESGGGLVQAGGSLRLSCAASGSTFDYYDMGWYRQAPGKERELVAAINWSGGSTYYADSVKGRFTISRDNAKNTVYLQMNSLKPEDTAVYYCAADLSSRGISQDDYWGQGTQVTVSS”: “high polyreactivity”.
